The target of test [1] is T1, human GUCY2C-rCD4 fusion protein (Homo sapiens (human); Rattus norvegicus, biotinylated (site not given)).
T1 construct: GUCY2C conjugated/fused with CD4; also called Hu-GUCY2C-rCD4; human GUCY2C recombinant antigen
Kind of test: SPR (Sierra SPR-32), scFv on protein G, antigen 800-12.5 nM, 25 C. The procedure:
Furthermore, the affinity to the GUCY2C antigen of the 18 kinds of scFvs produced in Example 1 was measured by SPR (Surface plasmon resonance) analysis.
SPR assay was performed with association time 2 min and dissociation time 10 min under the condition of 25 degrees of Celsius using MASS2 (Sierra SPR-32; Bruker). The data were analyzed with Software R3.

The target of test [2] is T1, human GUCY2C-rCD4 fusion protein. Kind of test: ELISA (DELFIA), antigen on streptavidin plate, scFv culture solution, Eu-anti-tag Ab. The procedure:
(§1) More specifically, GUCY2C-rCD4 fusion protein, in which the prepared human GUCY2C (SEQ ID NO: 112), monkey GUCY2C (SEQ ID NO: 114), and mouse GUCY2C (SEQ ID NO: 113) were fused, respectively, was bound to a place coated with streptavidin in a Nunc Maxisorp™96 well plate. After removing all the synthetic proteins not combined with washing buffer, the anti-GUCY2C scFV obtained in the culture solution was incubated in each well. After that, the affinity was measured by reading signals DELFIA enhanced using Eu-anti-tag Ab.
On the technique in general: ELISA stands for enzyme-linked immunosorbent assay.

The target of test [3] is T2, monkey GUCY2C-rCD4 fusion protein (Macaca fascicularis (crab-eating …, limits assumed)).
T2 construct: Prepared by the same method as the human antigen; also called Cy-GUCY2C-rCD4; monkey GUCY2C recombinant antigen
T2 chain: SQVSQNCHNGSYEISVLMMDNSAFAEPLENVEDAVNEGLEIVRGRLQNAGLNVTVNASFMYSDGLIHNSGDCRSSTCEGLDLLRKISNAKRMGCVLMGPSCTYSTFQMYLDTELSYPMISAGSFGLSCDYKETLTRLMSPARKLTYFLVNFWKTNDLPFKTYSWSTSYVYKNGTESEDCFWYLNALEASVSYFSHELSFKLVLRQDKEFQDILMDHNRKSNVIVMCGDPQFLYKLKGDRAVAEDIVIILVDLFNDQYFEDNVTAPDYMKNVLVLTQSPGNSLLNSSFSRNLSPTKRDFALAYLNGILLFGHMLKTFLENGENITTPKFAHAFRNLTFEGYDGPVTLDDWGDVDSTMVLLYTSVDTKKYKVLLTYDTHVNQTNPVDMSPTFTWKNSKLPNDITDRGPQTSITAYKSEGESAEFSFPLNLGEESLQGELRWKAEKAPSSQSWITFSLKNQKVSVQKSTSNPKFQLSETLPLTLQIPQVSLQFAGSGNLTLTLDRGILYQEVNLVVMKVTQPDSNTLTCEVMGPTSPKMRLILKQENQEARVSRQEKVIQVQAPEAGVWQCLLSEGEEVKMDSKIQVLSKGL
Described as above. The procedure:
as §1

Test [4] has as its target T1, human GUCY2C-rCD4 fusion protein. Kind of test: ranking ELISA (DELFIA), 5 nM scFv on anti-FLAG, biotinylated antigen, streptavidin-Eu. The procedure: (§2) More specifically, after coating an anti-FLAG antibody in a MaxiSorb plate and binding by adding scFvs obtained previously, the remaining scFvs were removed by a washing process. Here, a biotinylated human-GUCY2C-rCD4 protein was incubated and combined, and then the affinity to the antigen was measured by reading signals by DELFIA enhancement with color development through streptavidin-Europlum.

The target is the same in test [5]. Description: ranking ELISA (DELFIA), 50 nM scFv on anti-FLAG, biotinylated antigen, streptavidin-Eu. The procedure: as §2
Test [6] deals with T3, GUCY2C on the cell surface (T84 colon carcinoma cells; HT29-GUCY2C cells) (human, UniProt P25092 24-1073).
T3 construct: whole, on cells; also called GUCY2C expressing T84 cells; HT29 GCC cells
Description: flow cytometry on T84 cells, median MFI on live singlet cells (IgG-Fc-PE signal), scFv(-Fc) at 10 ug/mL. The procedure: (§3) Using cells naturally expressing GUCY2C, whether 18 kinds of scFvs produced in Example 1 could actually detect GUCY2C expression on the cell surface was confirmed. For this, a GUCY2C positive cancer cell, T84 colon carcinoma cell (ATCC® CCL248™) was used.
(§4) After separating the two cell lines using trypsin-EDTA, they were placed in FACS buffer (1×PBS+2% BSA). 10 ug/mL of each of the 18 kinds of scFvs and positive control group, 5F9 scFv was cultured with T84 and T-47D cells on ice for 1 hour. The scFv combined to cells was detected using 5 ug/mL IgG-Fc-PE Ab (BioLegend; 409304). The cells were cultured with ToPro®3 (live/dead stain) and then red with a flow cytometer.

The target in test [7] is T3, GUCY2C on the cell surface (T84 colon …). Kind of test: flow cytometry, scFv(-Fc) at 10 ug/mL on GUCY2C-positive T84 cells, detected with IgG-Fc-PE Ab (FL2-H). The procedure:
as §3, §4
On the technique in general: A flow cytometer gives signals particle by particle.

Test [8] concerns the target T1, human GUCY2C-rCD4 fusion protein. Kind of test: ranking ELISA (DELFIA), 5 nM scFv on anti-FLAG, biotinylated antigen, streptavidin-Eu; affinity ranking ELISA, 5 nM: binds. The protocol: as §2
Test [9] shares this target. Description: ranking ELISA (DELFIA), 50 nM scFv on anti-FLAG, biotinylated antigen, streptavidin-Eu; affinity ranking ELISA, 50 nM: binds. The protocol:
as §2

For test [10] the target is unchanged. Description: ELISA (DELFIA), antigen on streptavidin plate, scFv culture solution, Eu-anti-tag Ab; binding ELISA, Hu-GUCY2C-rCD4 antigen: binds. The procedure: as §1

From US20240115706A1 (LG CHEM, published 2024) come the findings set out here.

B1: scFv B11 (scFv)
scFv: QVQLVESGAEVKKPGSSVKVSCKASGGTFSSYAISWVRQAPGQGLEWMGGIIPIFGTANYAQKFQGRVTITADESTSTAYMELSGLRSEDTAVYYCARGIQPLRYYGMDVWGQGTLVTVSSGGGGSGGGGSGGGASQSALTQPPSASGTPGQRVTISCSGSSSNIGSNYVYWYQQLPGTAPKLLIYRNNQRPSGVPDRFSGSKSGTSASLAISGLRSEDEADYYCAAWDDSLSGRGVFGGGTQLTVL
notes: also called 2437_02_G07; G07
The term Kd denotes the equilibrium constant for the complex coming apart. In test [1], B1 displayed a Kd of 1330 nM. Besides, the “Binding ELISA signal” value turned out to be 37500 in [2] and 23600 in test [3]. Also, in test [4], the “Affinity Ranking ELISA (5 nM) signal” value was 14800. Also, the “Affinity Ranking ELISA (50 nM) signal” value in [5] is 89600. Also, the binding result in test [6] is listed as “binds”.

B2: scFv B01 (scFv)
scFv: EVQLVQPGAEVKKPGSSVKVSCKASGGTLSSYAISWVRQAPGQGLEWMGRIIPILGITNYAQKFQGRVTITADKSTSTAYMELSSLRSEDTAVYFCARDQRPASMDVWGQGTLVTVSSGGGGSGGGGSGGGASQSGLTQPASVSGSPGQSITISCTGTSSDVGGYNYVSWYQQHPGKAPKLMIYEVSNRPSGVSNRFSGSKSGNTASLTISGLQAEDEADYYCSTVTSLSTYVFGTGTKLTVL
notes: also called 2433_01_H07; H07
In the case of B2, in test [1], the Kd is 335 nM. Besides, the entries for the “Binding ELISA signal” value in [2] and in test [3] were 39400 and 4490, respectively. In addition, the “Affinity Ranking ELISA (5 nM) signal” value in [4] is 26200. Moreover, the “Affinity Ranking ELISA (50 nM) signal” value in [5] was determined as 133000. Also, the binding result in [7] is on record as “binds”.

B3: scFv B08 (scFv)
scFv: EVQLVQSGAEVKKPGSSVKVSCKASGGTFSSYAISWVRQAPGQGLEWMGGIIPIFGTANYAQKFQGRVTITADKSTSTAYMELSSLRSEDTAVYYCARGHYYYMDVWGQGTTVTVSSGGGGSGGGGSGGGASDIVMTQSPATLSVSPGEGATLSCRASQSVSSNLAWYQQKPGRAPRLLIYGASTRATGIPARFSGSGSGTEFTLTISSLQSEDFAVYYCQQYNNWPSFGGGTKLEIK
notes: also called 2436_02_F11
Turning to B3, in test [8], the “Affinity Ranking ELISA (5 nM) signal” value was determined as 23300. For the same molecule, the “Affinity Ranking ELISA (50 nM) signal” value in test [9] came to 153000. Besides, the “Binding ELISA signal” value in [10] worked out at 61100.

B4: scFv B12 (scFv)
scFv: QVQLVESGGGLVKPGGSLRLSCAASGFTFSSYSMNWVRQAPGKGLEWVSVIYSGGSTHYADSVKGRFTISRHNSKNTLYLQMNSLRAEDTAVYYCARGAGTLNAFDIWGQGTTVTVSSGGGGSGGGGSGGGASQSGLTQPPSTSGSPGQSVTISCTGTSSDVGAYSYVSWYQQHPGKAPKLLIYAVTKRPSGVPDRFSGSKSGNTASLTVSGLQDEDEADYYCSSFAGGSTLVFGGGTKLTVL
notes: also called 2437_02_G10
On to B4, for which binding in [1] was characterised by a dissociation constant (Kd) of 4540 nM. The “Binding ELISA signal” value in [2] amounted to 30900; in test [3], 22100. Further, in test [4], the “Affinity Ranking ELISA (5 nM) signal” value came out at 9590. In addition, the “Affinity Ranking ELISA (50 nM) signal” value in test [5] is 77100. Also, the binding result in test [7] was “binds”.

B5: scFv A08 (scFv)
scFv: EVQLLESGGGLVQPGGSLRLSCAASGFTFSSYWMSWVRQAPGKGLEWVANIKQDGSEKYYVDSVKGRFTISRDNAKNSLYLQMNSLRAEDTAVYYCAKAPWYSSSPTPYGMDVWGQGTLVTVSSGGGGSGGGGSGGGASDIQMTQSPSSLSASVGDRVTITCQASQDISNYLNWYQQKPGKAPRRLIYGASTLMSGVPSRFSGSGSGTDFTLTISSLQPEDFATYYCQQSYSTPLTFGGGTKVEIK
notes: also called 2432_01_D05
For B5, the “Affinity Ranking ELISA (5 nM) signal” value in test [8] was 8700. Further, the “Affinity Ranking ELISA (50 nM) signal” value in test [9] turned out to be 54800. Also, the “Binding ELISA signal” value in test [10] stood at 58100.

B6: scFv A01 (scFv)
scFv: QVQLVQSGAEVKKPGASVKVSCKASGYTFTSYYMHWVRQAPGQGLEWMGIINPSGGSTSYAQEFQGRVTMTRDTSTSTVYMELSSLRSEDTAVYYCARDGQWLQFDYWGQGTLVTVSSGGGGSGGGGSGGGASDIVMTQSPLSLPVTLGQPASISCRSSQSLLKKSDGNTYLSWYHQRPGQSPRRLIYKVSNRDSGVPDRFSGSGSDTDFTLKISRVETEDVGIYYCMQGSHWPPTFGQGTKVEIK
notes: also called 2426_01_A02
Take B6: the “Binding ELISA signal” value in test [3] is 28100; in test [10], 30200. Also, the “Affinity Ranking ELISA (5 nM) signal” value in [8] amounted to 13800. For the same molecule, the “Affinity Ranking ELISA (50 nM) signal” value in [9] amounted to 104000.

B7: scFv C07 (positive control), 5F9 scFv (scFv)
scFv: EIVMTQSPATLSVSPGERATLSCRASQSVSRNLAWYQQKPGQAPRLLIYGASTRATGIPARFSGSGSGTEFTLTIGSLQSEDFAVYYCQQYKTWPRTFGQGTNVEIKASGGGGSGGGGSGGGGSGGGGSELQVQLQQWGAGLLKPSETLSLTCAVFGGSFSGYYWSWIRQPPGKGLEWIGEINHRGNTNDNPSLKSRVTISVDTSKNQFALKLSSVTAADTAVYYCARERGYTYGNFDHWGQGTLVTVSS
notes: also called 5F9 scFv-Fc
B7 registered a dissociation constant Kd in [1] of 15 nM. Moreover, the “Binding ELISA signal” value in test [2] came to 83900; in test [3], 49200. Besides, the “Affinity Ranking ELISA (5 nM) signal” value in test [4] came out at 133000. Further, the “Affinity Ranking ELISA (50 nM) signal” value in [5] came to 184000. For the same molecule, the binding result in test [7] was “binds”.
